For one molecule, Ki results are on record in patent US20090305960A1, “Melanocortin Receptor-Specific Peptides for Treatment of Obesity / 669” (Palatin Technologies, Inc, priority 2008, published 2009).

The target in this assay is T1, human melanocortin-4 receptor (recombinant hMC4-R) (human, UniProt P32245 1-332).
T1 construct: whole, on cells; the cAMP assay used whole cells; also called MC4 receptor
The assay can be described thus: competitive binding vs Eu-NDP-α-MSH, TRF, hMC4-R HEK-293 membranes. The protocol:
Alternatively, a competitive inhibition binding assay was performed employing Eu-NDP-α-MSH (PerkinElmer Life Sciences catalog No. AD0225) with determination by time-resolved fluorometry (TRF) of the lanthanide chelate. In comparison studies with [I¹²⁵]-NDP-α-MSH, the same values, within experimental error ranges, were obtained for percent inhibition and Ki. […] After incubation for 90 minutes at 37° C., the reaction was stopped by filtration over AcroWell 96-well filter plates (Pall Life Sciences). The filter plates were washed 4 times with 200 μL of ice-cold phosphate-buffered saline. DELFIA Enhancement solution (PerkinElmer Life Sciences) was added to each well. The plates were incubated on a shaker for 15 minutes and read at 340 nm excitation and 615 nm emission wavelengths. Each assay was conducted in duplicate and mean values were utilized. Ki values were determined by curve-fitting with Graph-Pad Prism® software using a one-site fixed-slope competition binding model.
Peptides of the following structures were synthesized by the general methods described above, and except where indicated MC4-R Ki values for each peptide were determined in competitive binding assays using Eu-NDP-α-MSH as described in 7.2 above.

T1 sequence (P32245 whole entry): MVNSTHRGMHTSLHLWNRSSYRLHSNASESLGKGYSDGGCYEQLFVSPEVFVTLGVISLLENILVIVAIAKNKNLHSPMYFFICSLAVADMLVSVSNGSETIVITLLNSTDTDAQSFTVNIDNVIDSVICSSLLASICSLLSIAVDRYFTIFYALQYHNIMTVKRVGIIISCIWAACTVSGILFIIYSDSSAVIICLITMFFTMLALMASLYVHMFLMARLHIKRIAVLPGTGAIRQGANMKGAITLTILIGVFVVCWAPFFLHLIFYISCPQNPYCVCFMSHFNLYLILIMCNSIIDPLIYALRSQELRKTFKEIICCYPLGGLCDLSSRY

B1: Ac-Arg-cyclo(Asp-Pro-D-Phe-Arg-trp-Lys)-OH (peptide)
peptide: RDPXRWK
modifications: not fully specified; N-terminal acetyl (Ac); D-Phe at position 4; side-chain lactam cyclo(Asp2-Lys7); C-terminal -OH; position 6 printed 'trp' in the table and in claim 5 but 'Trp' in the 2nd table
notes: Synthetic cyclic heptapeptide; also called Compound 8; No. 8
As to B1, the Ki is 116 nM.
